The text below walks through data of paper PMC8121789, “Characterization of an engineered live bacterial therapeutic for the treatment of phenylketonuria in a human gut-on-a-chip” (Nature Communications, 2021).

Substrate in the data set: N[C@@H](Cc1ccccc1)C(=O)O
In words: Phe consumption by live engineered cells, Michaelis-Menten model. It counts as cell-based, Photorhabdus laumondii. To be noted: apparent whole-cell pathway value (PheP uptake plus PAL), not purified enzyme; in vitro Phe consumption assays.

B1: phenylalanine ammonia lyase (PAL) (Photorhabdus laumondii subsp. laumondii TTO1) (protein)
chain: MKAKDVQPTIIINKNGLISLEDIYDIAIKQKKVEISTEITELLTHGREKLEEKLNSGEVIYGINTGFGGNANLVVPFEKIAEHQQNLLTFLSAGTGDYMSKPCIKASQFTMLLSVCKGWSATRPIVAQAIVDHINHDIVPLVPRYGSVGASGDLIPLSYIARALCGIGKVYYMGAEIDAAEAIKRAGLTPLSLKAKEGLALINGTRVMSGISAITVIKLEKLFKASISAIALAVEALLASHEHYDARIQQVKNHPGQNAVASALRNLLAGSTQVNLLSGVKEQANKACRHQEITQLNDTLQEVYSIRCAPQVLGIVPESLATARKILEREVISANDNPLIDPENGDVLHGGNFMGQYVARTMDALKLDIALIANHLHAIVALMMDNRFSRGLPNSLSPTPGMYQGFKGVQLSQTALVAAIRHDCAASGIHTLATEQYNQDIVSLGLHAAQDVLEMEQKLRNIVSMTILVVCQAIHLRGNISEIAPETAKFYHAVREISSPLITDRALDEDIIRIADAIINDQLPLPEIMLEE
notes: PAL genes inserted in chromosome of host E. coli Nissle 1917 strain SYN5183 (FNR and Ptac promoters), co-expressed with transporter PheP; live cells
On to B1, for which the Michaelis constant (Km) came to 200 µM.

What is called Km is the concentration of substrate that gives half-maximal velocity.
